Data as given in the RNAGym collection of RNA variant scans (doi:10.1073/pnas.2313332121).

B1: TPR t1 (parent)
chain: GACCAAUCUGCCCUCAGAGCUCGAGAACAUCUUCGGAUGCAGAGGAGGCAGGCUUCGGUGGCGCGAUAGCGCCAACGUCCUCAACCUCCAAUGCAUCCCACCACAUGAUGAUGCCUGAAGAGCCUUGGUUUUUUG

Variants of: B1
Test: polymerase ribozyme fitness, log enrichment relative to wild type (log ratio); higher = more active; in vitro selection for triplet polymerase activity
Method in brief: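 Mutant libraries of each subunit of a heterodimeric triplet polymerase ribozyme were built by PCR and transcribed. Each library went through one round of in vitro selection in triplicate: annealing with biotinylated primer, partner subunit and triplets, frozen incubation at −7 °C, gel excision of extended constructs, streptavidin-bead capture and RT-PCR. Input and output libraries were Illumina-sequenced; only genotypes with ≥10 input reads and ≥1 read per output were kept. Fitness is log2(genotype enrichment/wild-type enrichment), using inverse-variance-weighted replicate averages.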

| Variant | polymerase ribozyme fitness (log ratio) |
| --- | --- |
| C11U C15G A27G C94G U109C G110A A119U G120A | -7.62 |
| C11U C85G U109G C123A | -5.74 |
| C11U C114U | -1.57 |
| C11U C114G | -3.54 |
| C11U C15A C56U | -1.47 |
| C11U G57U | -0.202 |
| C11U C15A C101G | -3.87 |
| C11U G71C | -0.699 |
| C11U G60A G61U U78C C86G | -4.45 |
| C11U C62G U112A C123A G127U | -0.368 |
| C11U C72A U78A C97A | -5.56 |
| C12A A74G | -0.0689 |
| C12A A74U | -0.922 |
| C12A A74C G93A C124U U132A | -1.34 |
| C11U C56G C88U G120C G122U G127A | -0.748 |
| C11U G39C | -1.05 |
| C11U C40G C49A U55G G61A | -1.51 |
| C12A A18U C56U C79U C115U A118C U131C | -3.23 |
| C11U C80U G113C | -3.93 |
| C11U G36U G117A C124U | -5.7 |
| C12A C64G C98G A103U A119G | -6.93 |

| Variant | polymerase ribozyme fitness (log ratio) |
| --- | --- |
| C12A A46U G47C A68G U78C C124G | -4.93 |
| C12A C20A G61U G120A | -1.21 |
| C12A A84U A95C G135C | -1.09 |
| C11U U109G | -5.84 |
| C11U G51U | -3.04 |
| C11U A84G C89U G93U | -2.61 |
| C11U C15G G51U A119G U133A | -2.44 |
| C12A C85G U116C | -3.68 |
| C11U C12A A41C C56G G69U | -2.94 |
| C12A C76A C82A U92G | -4.72 |
| C11U G61U C76U A111C | -5.8 |
| C11U G47A G71C C86U | -0.929 |
| C12A A26C C56G G63U C89G G107A U116C | -7.06 |
| C11U C12G C15U C28G U38A C56U G69C G120A | -7.02 |
| C12A C28U G63C | -2.37 |
| C11U C15U A16C G42A | -2.92 |
| C11U G127U | -2 |
| C11U C13U A50C A103C U125A | -5.37 |
| C11U C40U G60U G77C A111U | -4.37 |
| C11U A84G C89A | -4 |
| C11U G44C G61U C104U U116C | -2.32 |

| Variant | polymerase ribozyme fitness (log ratio) |
| --- | --- |
| C11U C70U C101A G128C | -4.09 |
| C12A C85G | -2.79 |
| C11U G71A C98U A105U G110U G122U C124A | -7.92 |
| C12A C64U C72U | -1.01 |
| C11U C12A U96C | -2.18 |
| C12A C13A C72U U92C G117A A121U C123U | -1.56 |
| C11U A118U | -0.464 |
| C11U G51U A119U | -3.53 |
| C11U G48A U59A G69U C88G G135U | -3.32 |
| C11U U54C G63U C85A | -2.46 |
| C12A C15A C72U C79A C88A | -5.1 |
| C11U C13U C53U G63U U92G C104U U112A | -4.22 |
| C11U C20G U96G C123U | -2.94 |
| C11U C34G C53A G71A | -6.35 |
| C12A C62U A83G A100C | -3.89 |
| C11U A105C A118G | -2.52 |
| C11U C53U C72U C82G | -1.43 |
| C11U C13U G44C C86G U116C U132C | -1.99 |
| C12A C86G C123A | 0.105 |
| C12A C72U A100C U133G | -1.76 |
| C12A C15U U21A G39A | -1.06 |

| Variant | polymerase ribozyme fitness (log ratio) |
| --- | --- |
| C12A A121U | 1.74 |
| C11U U32A A68C G69U C98A C99A U106A C115G G117C U132A | -6.55 |
| C12A A29U C56U | -3.33 |
| C12A C40A C86A C101U U106G | -5.32 |
| C12A A37U C114G | -3.99 |
| C11U A83C | -0.558 |
| C12A A27G G93A | -5.16 |
| C12A A37C A50G C53A | -0.87 |
| C11U G48A G61A C86G | -1.75 |
| C11U C49A G107U G120A | -4.45 |
| C11U G52A G57U A95U | -1.32 |
| C11U U54A G60A G110C A121U | -4.92 |
| C11U C49A U55C G60A U87A C88G A95C A121U | -2.74 |
| C12A A29U G93U | -2.79 |
| C12A C28U G44A C49G C72U C86A | -4.58 |
| C11U C56A A91U U96C | -3.51 |
| C11U G19A C49U C56U U59C C114U | -2.93 |
| C11U G42C G63C U130G | -3.61 |
| C11U G45A C89G A121G | 0.687 |
| C11U G19C G71A U116C A119U G122A | -6.27 |
| C11U U106A G110C C123U | -2.46 |
